From article PMC4771647, “Improving the thermostability and stress tolerance of an archaeon hyperthermophilic superoxide dismutase by fusion with a unique N-terminal domain” (SpringerPlus, 2016) come the findings set out here.

Series [1] addresses rSODSs, fusion of the N-terminal domain (NTD) of SOD NG2215 of Geobacillus thermodenitrificans NG80-2 with SODSs (Geobacillus thermodenitrificans NG80-2 | Sulfolobus solfataricus). Description: AUC; sedimentation velocity, interference data, 36,000 rpm, An-60 Ti rotor, 4 °C; 50 mM potassium phosphate buffer plus 150 mM NaCl, pH 8.0; continuous c(s) distribution (SEDFIT).
Series [2] deals with the molecule itself. The description is as above.

Several values for one entry are separate records, joined by “and”; a condition that tells them apart may be missing. Identical values can stand only once.

Take “rSODSs, fusion of the N-terminal domain (NTD) of SOD NG2215 of Geobacillus thermodenitrificans NG80-2 with SODSs (enzyme)”: the stoichiometry N in series [1] was 4 and 2.

B1: superoxide dismutase from the archaeon Sulfolobus solfataricus (SODSs) (enzyme, UniProt P80857 1-211, looked up)
chain: MTLQIQFKKYELPPLPYKIDALEPYISKDIIDVHYNGHHKGYVNGANSLLERLEKVVKGDLQTGQYDIQGIIRGLTFNINGHKLHALYWENMAPSGKGGGKPGGALADLINKQYGSFDRFKQVFTETANSLPGTGWAVLYYDTESGNLQIMTFENHFQNHIAEIPIILILDEFEHAYYLQYKNKRADYVNAWWNVVNWDAAEKKLQKYLTK
notes: Fe superoxide dismutase (SODSs) of Sulfolobus solfataricus; gene synthesised into pET-28a (pET-SODSs); expected size 24.2 kDa; Tetramer by analytical ultracentrifugation (major peak), with small quantities of dimers; also called Fe-SODSs; native SODSs
For the molecule B1, in series [2], the “stoichiometry N” value is 4 and 2.

Usually stoichiometry N stands for a count of units in the complex or per binding partner.
